Here are results for one molecule from article PMC7699638.

In the assay the target is MBP-ROCK2 (full-length ROCK2 with N-terminal MBP tag) (human), O75116. As to the kind of experiment: SAXS; MBP-ROCK2 alone; 25 mM HEPES pH 7.4, 25 °C, concentration series 0.3–1.1 mg/ml; molecular mass from the scattering extrapolated to zero angle. The note with it: remark: other sources report otherwise.

B1: MBP-ROCK2 (full-length ROCK2 with N-terminal MBP tag), O75116 1-1388 (enzyme)
chain: MSRPPPTGKMPGAPETAPGDGAGASRQRKLEALIRDPRSPINVESLLDGLNSLVLDLDFPALRKNKNIDNFLNRYEKIVKKIRGLQMKAEDYDVVKVIGRGAFGEVQLVRHKASQKVYAMKLLSKFEMIKRSDSAFFWEERDIMAFANSPWVVQLFYAFQDDRYLYMVMEYMPGGDLVNLMSNYDVPEKWAKFYTAEVVLALDAIHSMGLIHRDVKPDNMLLDKHGHLKLADFGTCMKMDETGMVHCDTAVGTPDYISPEVLKSQGGDGFYGRECDWWSVGVFLYEMLVGDTPFYADSLVGTYSKIMDHKNSLCFPEDAEISKHAKNLICAFLTDREVRLGRNGVEEIRQHPFFKNDQWHWDNIRETAAPVVPELSSDIDSSNFDDIEDDKGDVETFPIPKAFVGNQLPFIGFTYYRENLLLSDSPSCRETDSIQSRKNEESQEIQKKLYTLEEHLSNEMQAKEELEQKCKSVNTRLEKTAKELEEEITLRKSVESALRQLEREKALLQHKNAEYQRKADHEADKKRNLENDVNSLKDQLEDLKKRNQNSQISTEKVNQLQRQLDETNALLRTESDTAARLRKTQAESSKQIQQLESNNRDLQDKNCLLETAKLKLEKEFINLQSALESERRDRTHGSEIINDLQGRICGLEEDLKNGKILLAKVELEKRQLQERFTDLEKEKSNMEIDMTYQLKVIQQSLEQEEAEHKATKARLADKNKIYESIEEAKSEAMKEMEKKLLEERTLKQKVENLLLEAEKRCSLLDCDLKQSQQKINELLKQKDVLNEDVRNLTLKIEQETQKRCLTQNDLKMQTQQVNTLKMSEKQLKQENNHLMEMKMNLEKQNAELRKERQDADGQMKELQDQLEAEQYFSTLYKTQVRELKEECEEKTKLGKELQQKKQELQDERDSLAAQLEITLTKADSEQLARSIAEEQYSDLEKEKIMKELEIKEMMARHKQELTEKDATIASLEETNRTLTSDVANLANEKEELNNKLKDVQEQLSRLKDEEISAAAIKAQFEKQLLTERTLKTQAVNKLAEIMNRKEPVKRGNDTDVRRKEKENRKLHMELKSEREKLTQQMIKYQKELNEMQAQIAEESQIRIELQMTLDSKDSDIEQLRSQLQALHIGLDSSSIGSGPGDAEADDGFPESRLEGWLSLPVRNNTKKFGWVKKYVIVSSKKILFYDSEQDKEQSNPYMVLDIDKLFHVRPVTQTDVYRADAKEIPRIFQILYANEGESKKEQEFPVEPVGEKSNYICHKGHEFIPTLYHFPTNCEACMKPLWHMFKPPPALECRRCHIKCHKDHMDKKEEIIAPCKVYYDISTAKNLLLLANSTEEQQKWVSRLVKKIPKKPPAPDPFARSSPRTSMKIQQNQSIRRPSRQLAPNKPS
Regarding B1, the stoichiometry N is 2.

One may read the stoichiometry N as the number of molecules, sites or subunits per partner or assembly.
